This is an account of results in patent US20240377408A1.

A word on the Kd: it is the free concentration of one partner at which half of the binding sites on the other are occupied at equilibrium, for simple one-to-one binding. Lower therefore signals a tighter complex. In general, koff refers to the rate constant with which the complex falls apart. Lower therefore signals a long-lived complex. Broadly, the kon is the rate constant with which the complex forms. A lower kon goes with slow association.

Assay [1] addresses biotinylated peptide M64-P1-P2-ΔK-(PEG9)(PEG9)-K(Biotin) with P1 = V. Description: BLI, biotinylated peptide on streptavidin tips, binder in solution. On the technique in general: In BLI a coated tip is dipped into the sample, and binding shifts an interference pattern.
Assay [2] concerns the target biotinylated peptide M64-P1-P2-ΔK-(PEG9)(PEG9)-K(Biotin) with P1 = T. Described as above.

B1: S279_0004 (designed binder, not shown: small tags and cut ends; large carriers)
chain: EWGYASHNGPDHWHELFPNAKGENQSPIELHTKDIRHDPSLQPWSVSYDGGSAKTILNNGKTLGVVFDDTYDRSMLRGGPLPGPYRLREFHLHWGSSDDHGSEHTVDGVKYAAELHLLHWNPKYNTFKEALKQRDGLAVIGIFLKIGHENGEFQIFLDALDKIKTKGKEAPFTKFDPSSLFPASRDYWTYQGSMTIPPLMEAVVWLLLKEPMTVSSDQMAKLRSLLSSAENEPPVPLVSNWRPPQPINNRVVRASFK
B1 registered a Kd in assay [1] of less than 350 nM.

B2: Synthetic binder, S279_0004 (designed binder)
chain: B1 chain
In assay [2], B2 returned a Kd of 488 nM, a koff of 0.0111 s⁻¹ and a kon of 23300 M⁻¹ s⁻¹. In assay [1], this molecule yielded a dissociation constant Kd of 20 nM, an off-rate (koff) of 0.000473 s⁻¹ and a kon of 23700 M⁻¹ s⁻¹.
